In this assay the target is T1, mouse TSLP-His (Sino Biological, product code 51005-M08H) (mouse, UniProt Q9JIE6 20-140).
T1 construct: Bought reagent; also called TSLP (Mouse); not shown: His tag
T1 sequence (looked up): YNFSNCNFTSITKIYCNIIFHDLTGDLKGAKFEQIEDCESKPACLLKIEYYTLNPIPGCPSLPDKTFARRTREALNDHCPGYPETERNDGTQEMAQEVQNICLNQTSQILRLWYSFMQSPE
Briefly: ELISA, mouse TSLP-His coated. On the technique in general: In an ELISA, binding on a coated surface is turned into a signal by an enzyme label.

Residue numbers refer to the chain shown, from its start.

B1: humanized anti-TSLP monoclonal antibody HA-II (antibody, human IgG1, kappa, L234A L235A, V domains shown)
VH: QVQLVQSGAEVKKPGASVKVSCKASGYTFTSYWMHWVRQAPGQGLEWIGLIDPSDSDTTYNQKFKGRATLTVDTSTSTAYMELSSLRSEDTAVYYCSRSLDGYFDHWGQGTLVTVSS
VL: DIVMTQSPSSLSASVGDRVTITCRASENIYSYLAWYQQKPGKAPKLLVYNARTLAEGVPSRFSGSGSGTDFTLTISSLQPEDFATYYCQHHYGTPWTFGGGTKVEIKR
For B1, the binding result was “no binding (tested: 16 µg/ml (highest concentration))”.

B2: humanized anti-TSLP monoclonal antibody HA-IV (antibody, human IgG1, kappa, L234A L235A)
heavy: not shown
light: DIVMTQSPSSLSASVGDRVTITCRASENIYSYLAWYQQKPGKAPKLLVYNARTLAEGVPSRFSGSGSGTDFTLTISSLQPEDFATYYCQHHYGTPWTFGGGTKVEIKRTVAAPSVFIFPPSDEQLKSGTASVVCLLNNFYPREAKVQWKVDNALQSGNSQESVTEQDSKDSTYSLSSTLTLSKADYEKHKVYACEVTHQGLSSPVTKSFNRGEC
As to B2, the binding result is “no binding (tested: 16 µg/ml (highest concentration))”.

B3: humanized anti-TSLP monoclonal antibody HA-I (antibody, human IgG1, kappa, L234A L235A, V domains shown)
VH: B1 VH
VL: B1 VL with A43S
notes: also called HA-1; EB070
As for B3, the binding result was “no binding (tested: 16 µg/ml (highest concentration))”.

B4: humanized anti-TSLP monoclonal antibody HA-III (antibody, human IgG1, kappa, L234A L235A)
heavy: not shown
light: B2 light with V3Q
As to B4, the binding result is recorded as “no binding (tested: 16 µg/ml (highest concentration))”.

For the origin of these results see patent US20250042987A1 (BEIJING DONGFANG BIOTECH, published 2025).
